# From the nanobody polyreactivity screen of Harvey et al. (2022)
# Test: yeast display, Sf9 membrane polyspecificity reagent, FACS + sequencing; frameworks hold sequencing errors
# Summary of the method: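 Polyreactivity labels are assigned by the sorting gate from which each nanobody was recovered. The gates were low and high (top ~1%), set on anti-HA fluorescence for expression and streptavidin fluorescence for reagent binding. Before sorting, galactose-induced (36–48 hours) yeast display cells were stained for 1 hour at 4 °C with 10% biotinylated, detergent-solubilized Sf9 membrane reagent.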
row,Sequence,polyreactivity (PSR sort gate)
1,QVQLVDSGGGLVQAGGSLRLSCAASVFTFYCNAMGWYRQAPGKERELVAAITSTGNTYYADSVKGRFTISRDNAKNTVYLQMNSLKPEDTAVYYCARRGDILYDYWGQGTQVTVSS,low polyreactivity
2,QVQLVDSGGGLVQAGGSLRLSCAPYVLIFWAYAMGWYRQAPGKERELVAAISWSGARTYYADSVMGRFTISRDHAKHTVYLQMNSLKPEDTAVYYCAVGVQSSKRHDYWGQGTQVTVSS,high polyreactivity
3,QVQLVDSGGGLVQAGGSLRLSCPASGRTFFNNVMGWSRQAPGKEREWVAAISKSGTRTYYADSVKGRFTISRDNAKNTVYLQMNSLKPEDTAVYYCATGPYLRTSRYYYWGQGTQVTVSS,high polyreactivity
4,QVQLVDSGGGLVQAGGSLRLSCSASGSILGAYAMGWYRQSPGKERELVASISWSGGSTYYADSVKGRFTISRDNAKNTVYLQMNSLKPEDTAGYYCAASGIRYWLPYDYWGQGTQVTVSS,high polyreactivity
5,QVQLVDSGGGLVQAGGSLRLSSAASGRTFRYYTMGWYRQAPGKERELVAGISRSGANTYYADSVKGRFTISRDNAKNSVYLQMNSLKPEDTAVYYCNAVYGTYDWGQGTQVTVSS,high polyreactivity
6,QVQLVDSGGGLVQAGGSLRLSWAASGSTLYVNAIGFYRQAPGKERELVSAISWSGGSTNYADSVKGRFTISRDNAKNTVYLQMNSQKPEDTSVYYCAVYYRRWFSRYDYWGQGTQVTVSS,low polyreactivity
7,QVQLVDSGGGLVQAGGSLRLTCAASGRTFRYNAMGWYRQAPGKERDLVARISRGGSPYADSVKGRFTISRDNAKNTVYLQMNSLKPEDSAVYYCAADPTKHNQSEYYYWGQGTQVNVSS,low polyreactivity
8,QVQLVDSGGGLVQAGGSLRLTCAASGSTFDTNSVGWYRQAPGKERELVAAITSGGNTYADSVKGRFTISRDNAKNTVYFQMNSLKAEDTAVYYCAAEDVFTCWYDYWGQGTQVNVSS,low polyreactivity
9,QVQLVDSGGGLVQAGGSLRLTCDASGFIILYYAMRWYRQEPGKERELVADISRGADTKYADSVKGRFTISRDNAKNTVYLQMNSLKPEDTAVYYCATDITTFCFPYPGVELGYWGQGTQVTVSS,low polyreactivity
10,QVQLVDSGGGLVQAGGSLRLTSAASGRIFVRNAMGWYRPAPGKERELVAASSWSSGGTYYADSVKGRFTISRDNAKNRVYLQMNSLKPEETAVYSCIADTSRAGVYWGQGTQVTVSS,low polyreactivity
11,QVQLVDSGGGLVQAGGSLSLSCAASGNIFDYNVMGWYRQAPGKERELVAAITASAVRTYYADSVKGRFTISRDNAKNTVYLQMNSLKPEDIAVYYCGKRRIVRQRSYYYWGQGTQVTVSS,low polyreactivity
12,QVQLVDSGGGLVQAGGSLSLSCAASGRIFPYNAMGWYRQAPGKERELVAGISRTGGSTYYADSVKGRFTISRDNAKNTVYLQKNCLKTEDTAAYYCGARPGAHPDRLDYWGQGTQVTVSS,low polyreactivity
13,QVQLVDSGGGLVQAGGTLRLSCAASGFTFIYYAMGWYRQAPGKERELVAAISASGGSTYYADSVKGRFTISRDNAKNTVYLQMNSLKPEDTAVYYCNKYWRKPPAGGYYYWGQGTQVTVSS,high polyreactivity
14,QVQLVDSGGGLVQAGGTLRLSCAASGRTIRYNAMAWYRQAPGKERELVAAITGSGGSTYYADSVKGRFTISRDNAKNTVYLQMNSLKPEDTAVYYCARDGYLVYYYDWSYPYDSWGQGTQVTVSS,low polyreactivity
15,QVQLVDSGGGLVQAGGTLRLSCGASGLIFYLYAMGWFRQAPGKERELVAAITYSGGSTRYADSVKGRFTISRDNAKNTVYFQKNSLKPEDTAVYYCNAAGTAPTELDYWGQGSQVTVSS,low polyreactivity
16,QVQLVDSGGGLVQAGGTLSLSCAASGRTFWWYARGWSRQAPGTERELVDAITNFGSTNYADSVKGRFSISRDNAKNTVYLQKNSLKPEDTAVYYCAALTRCWYGGFYQYYYLGQGTQVTVSS,high polyreactivity
17,QVQLVDSGGGLVQAGPSLRLSCAASGSTFYLYAMGWYRQAPGKERELVAAITFRGSRTYYADSVKGRFTISRDNAKNTVYFQMNSLKPEDTAVYYCAADSYIERAYGSLGVWRYDYWGQGTQVTVSS,low polyreactivity
18,QVQLVDSGGGLVQAGVSLRLSCAASGSIFLLNAMGWYRQATGKERELVAAISWGGGSTYYADSVKGRFTISRDNAKNTVYLQMNSLKPEDTAVDYCNASVTLGQEVDYWGLGTQVTVSS,low polyreactivity
19,QVQLVDSGGGLVQEGGSLRLSCAASGSIFLIYAMGWYRQAPGKERELVAAITGGGTTNYADSVKGRFTISRDNAKNTVYLQMNSLKPEDTAVYYCNTLYLVYLYWTSPTPSDLFDYWGQGTQVTVSS,low polyreactivity
20,QVQLVDSGGGLVQSGGILRLSCAASGRTFRYYAMGSYRQAPGKERELVAAISSGGSTNYADSVKGRFTISRDNAKNTVYLQMNSLKPEDTAVYYCAALWSGNKFKYWGQGSQVTVSS,low polyreactivity
21,QVQLVDSGGGLVQSGGSLSLSCAASGFNFWPYAMGWYREAPGKEREFVAAITRTGGSTSYADSVKGRFTISRDNAKNTVYLQINSLKPEDTAVYYCAATSYYRTNYGLVFQYRRNYGGQGTQVTVSS,high polyreactivity
22,QVQLVDSGGRLLQAGGSLRLSSAASGLIFKRYAMGWYIQAPGKERELDAAITSGSSTNYADSVKGRFTISRDNAKNTVYLQMNSLKPEDTAVYYCARDVYFSPYYRRSFQWRFDYWGQGTQVTVSS,high polyreactivity

row,Sequence,polyreactivity (PSR sort gate)
1,QVQLVDSGGRLVQAGGRLRLTCAASGFILSYNMGWYRQAPGKERELVATISYNDVSTYYADSVKGRFTISRDNAKNTVYLQMNSLKPEDTAVDYCNAQFPIITRRGYDYWGQGTQVNVSS,high polyreactivity
2,QVQLVDSGGRLVQAGGSLRLSCSASGIIIPSYAMGWYRQAPGKERELVAAISGRGGRTYYSDSVKGRFTISRDNAKNSVYLQMNSLKPEDTAVYYCAASGTSSSRKSYYWGQGTQVTVSS,high polyreactivity
3,QVQLVDSGGVLVQAGGSLRLSCAASGGTFRTYAMGWYRQAPGKERELVAAITWRGGSTYYADSVKGRFTISRDNAKNTVYLQMNSLKPEDTAVYNCAARVAYQWSFYKYDYWGQGTQVTVSS,high polyreactivity
4,QVQLVDSGGVLVQAVGSLRLSCAASGLIFYSNAMGWYRQAPGKERELVATISWSGGSTYYADSVKGRFTSSRDNAKNTVYLQMNSLTPEDTAVYYCAAVTHPAWAVEYDYWGQGTQVTVSS,high polyreactivity
5,QVQLVDSGRGLVQAGGSLRLSCAASGSIFGKYAMGWYREAPGKERELVAAISKGGGRTSYADSVKGRFTISRDNAKNTVYLQMNSLKPEDTAVYYCNVAQNYWAGLYDYWGQGTQVTVSS,high polyreactivity
6,QVQLVDSGVGLVQAGGSLRLSCAASGRTFTTNTKGWYRDATWKERELVAAITWSGASTYYADSVKGRFTISRDNAKNTVYLQMNSLKPEDTAVYYCAAERTPSYRAYDYWGQGTQVTVSS,low polyreactivity
7,QVQLVDSVGGLVEAGGILRLSCAASGNTFGRNAMGWYRQEPGKESELVAAISFSGSRPYYADSVKGRFTISRDNAKYTVYLQRNSLKPEDTAVYYCNKRGADWTGFFYYQYDFWGQGTQVTVSS,low polyreactivity
8,QVQLVDTGGGLVQAGGSLRLSCSASGSNFEYNDMVWYRHAHGKERELVAAISSGGDTNYADSVKGRFTISRDNAKNTVYLQKNSLKAEDTAVYYCNAEGLILYDYWGQGTQVTVSS,low polyreactivity
9,QVQLVEAAGGLVQAGGSLRLSCAASGSIFRNNAMGWYSPAPGKARELVAVISRRSGNTYYADSVKGRLTISRENAKNPVYLLMNSLKPEDSAVYYCAADYSNSSIRGDYWGQGTEVTVSS,low polyreactivity
10,QVQLVEACGGLVQAGGSLRLSCAASRSIFPYNAMGWYRQAPGKDRELVATMSSGGSTNYADSVKGRFTISRDNAKNTVYLQKNSLKPEDTAVYYCNAEAAYYPLWMDYWGQGTQVTVSS,low polyreactivity
11,QVQLVEAGGGFVQAGGRLRLSCAASGSIFTLNTRGWYSPAPGKEREWVAAMTGSGGITYSADSVKGRFTISRDKAKKTVYLQLNSLKPEETAVYYCAADTGYVHAGYWGQGTQVTVSS,low polyreactivity
12,QVQLVEAGGGFYQPGGSLRLSCAASGRTFSYYASGWYRQAPGKERELVAAITDSGDSTYYADSVKGRFTISRDNANNTVYLQMKSLKPEDTAVYDCAATTYSWYDYWGQGTQVTVSS,high polyreactivity
13,QVQLVEAGGGLVQAGGSLRLSCAASGLIIAKYAMGWYRQAPGKERELVAGITSGGGTSYADSVKGRFTISRDNAKNTVYLQMNSLKPEDTAVNYCNAVVVGWFYQYDYWGQGTQVTVSS,low polyreactivity
14,QVQLVEAGGGLVQAGGSLRLSCAASGNIFLYYAMGWYRQAPGKEREFVADIDSSGASTYYADSVKGRFTISRDNAKNTVYLQMNSLKPEDTAVYYCAAEFHWWYAGYDYGYWGQGTQVTVSS,low polyreactivity
15,QVQLVEAGGGLVQAGGSLRLSCAASGRTFYQNAMGWNIQAPGKERELVAAISRSGGSTYYADSVKGRFTISRDNAKITVYLQMTSLKPEDTAVYYCAADPRSYGGGYDYWGQGTQVTVSS,high polyreactivity
16,QVQLVEAGGGLVQAGGSLRLSCAASGSIFVGNAMGWYRQAPGKERELVAAISSSGGRKFYADSVKGRFTISRDNAKNTVYLQMISLKPEDTAVYYCAAVYTHWQQRMDYWGQGTQVTVSS,high polyreactivity
17,QVQLVEAGGGLVQAGGSLRLSCAASGSTFPYYTMGGYRQAPGKDRELVAAITWRGGRTYYADSVKGRFTISRDNAKNTVYLQMNSLKPEDTAVYYCAAKQKHTQQTGWKYEYWGQGTQVTVSS,high polyreactivity
18,QVQLVEAGGGLVQAGGSLRLSCAASGSTFRWNAMGWYRQAPGKERELVAAITRSGGSTYYADSVKGRFTISRDNAKNTFYLQMNSLKPEDTAVYYCAAGYFTARRIRYDYWGQGTQVTVSS,high polyreactivity
19,QVQLVEAGGGLVQAGGSLRLSCAASGSTFYKNAMGWYRPAAGKERELVAGISRRGGPTYYADSVKGRFTISRDKAMNTVYLQMNSLNPEDTAVYYCNTGHEEDEYDYWGQGTQVTVSS,low polyreactivity
20,QVQLVEAGGGLVQAGGSLRLSCADCVSTGVNTMGWYRQAPGKERELVDAIRATGGSTYYADSVKGRFTISRDNAKNTVYLQMNSLKPEDTAVYYCAAKWFRLYLRQDRYYYWGQGTQVTVSS,high polyreactivity
21,QVQLVEAGGGLVQAGGTLRLSCAASGYTFIYYAMGWYRQAPGKERELVATISIDGSTNYADSVKRRFTISRDNAKNTVYLQMNSLKPEDTAVYYCNRERYEDYDYWGQGTQVTVSS,high polyreactivity
